Reference: patent US20120251547A1 (Amgen, published 2012)
Positions count from the first letter of the chain named.

B1: AMH12/AML12 (antibody, IgG2, V domains shown)
VH: QVQLVQSGAEVKKPGASVKVSCKASGYTLTSYGISWVRQAPGQGLEWMGWISTYKGNTNYAQKLQGRVTMTTDTSTSTAYMELRSLRSDDTAVYYCARKQLVFDYWGQGTLVTVSS
VL: EIVMTQSPATLSVSPGERATLSCRASQSISSSLAWYQQKPGQAPRLLIYGASTRATGIPARFSGSGSGTEFTLTISSLQSENFAVYYCQQYDNWPLTFGGGTKVEIK
notes: human mAb from IgG2 XenoMouse mice; also called AM-12; antibody M
B2: AMH17/AML17 (antibody, V domains shown)
VH: B1 VH with S17A, S25T, T53A, K55S, N59K
VL: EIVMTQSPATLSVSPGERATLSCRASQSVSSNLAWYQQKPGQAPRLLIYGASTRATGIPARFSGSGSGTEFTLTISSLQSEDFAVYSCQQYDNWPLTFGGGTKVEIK
notes: human mAb from IgG2 XenoMouse mice; also called AM-17; antibody N

How the values were obtained:
huIL-17RA-FLAG-polyHis [1] = target: T1, huIL-17RA-FLAG-polyHis (human, UniProt Q96F46 33-320); assay: binning; IL-17RA held by bead mAb N
T1 construct: also called IL-17RA-FLAG-pHis; wild-type IL-17RA

huIL-17RA-FLAG-polyHis [2] = target: T1, huIL-17RA-FLAG-polyHis; assay: binning; IL-17RA held by bead mAb F
huIL-17RA-FLAG-polyHis [3] = target: T1, huIL-17RA-FLAG-polyHis; assay: binning; IL-17RA held by bead mAb M
huIL-17RA-FLAG-polyHis [4] = target: T1, huIL-17RA-FLAG-polyHis; assay: binning; IL-17RA held by bead mAb E
huIL-17RA-FLAG-polyHis [5] = target: T1, huIL-17RA-FLAG-polyHis; assay: binning; IL-17RA held by bead mAb H
huIL-17RA-FLAG-polyHis [6] = target: T1, huIL-17RA-FLAG-polyHis; assay: binning; IL-17RA held by bead mAb B
huIL-17RA-FLAG-polyHis [7] = target: T1, huIL-17RA-FLAG-polyHis; assay: binning; IL-17RA held by bead mAb D
huIL-17RA-FLAG-polyHis [8] = target: T1, huIL-17RA-FLAG-polyHis; assay: binning; IL-17RA held by bead mAb I
[9] = target: human IL-17RA (form used in the low resolution BIAcore not stated) (human, UniProt Q96F46 33-320, limits assumed); assay: low resolution BIAcore, subcloned hybridoma
huIL-17RA-FLAG-polyHis [10] = target: T1, huIL-17RA-FLAG-polyHis; assay: binning; IL-17RA held by bead mAb J
[11] = target: T2, human IL-17RA, full-length, on cells (human, UniProt Q96F46 33-866); assay: cell-based or functional assay
huIL-17RA-FLAG-polyHis [12] = target: T1, huIL-17RA-FLAG-polyHis; assay: binning; IL-17RA held by bead mAb R
huIL-17RA-FLAG-polyHis [13] = target: T1, huIL-17RA-FLAG-polyHis; assay: binning; IL-17RA held by bead mAb A
huIL-17RA-FLAG-polyHis [14] = target: T1, huIL-17RA-FLAG-polyHis; assay: binning; IL-17RA held by bead mAb P
huIL-17RA-FLAG-polyHis [15] = target: T1, huIL-17RA-FLAG-polyHis; assay: binning; IL-17RA held by bead mAb O
[16] = target: T3, cynomolgus IL-17RA, on cells (cynomolgus); assay: FACS competition: non-clonal supernatant inhibiting biotin-huIL-17A (competitor) binding to cyno IL-17RA+ CHO cells
T3 construct: whole, on cells; also called CHO-cynoIL-17RA; cyno IL-17RA+ CHO cells

huIL-17RA-FLAG-polyHis [17] = target: T1, huIL-17RA-FLAG-polyHis; assay: binning; IL-17RA held by bead mAb Q
huIL-17RA-FLAG-polyHis [18] = target: T1, huIL-17RA-FLAG-polyHis; assay: binning; IL-17RA held by bead mAb C
huIL-17RA-FLAG-polyHis [19] = target: T1, huIL-17RA-FLAG-polyHis; assay: binning; IL-17RA held by bead mAb G
huIL-17RA-FLAG-polyHis [20] = target: T1, huIL-17RA-FLAG-polyHis; assay: binning; IL-17RA held by bead mAb K
huIL-17RA-FLAG-polyHis [21] = target: T1, huIL-17RA-FLAG-polyHis; assay: binning; IL-17RA held by bead mAb L
[22] = target: T2, human IL-17RA, full-length, on cells; assay: cell-based or functional assay; remark: listed apart in the source

Row | Binder | normalized MFI (huIL-17RA-FLAG-polyHis [1]) | normalized MFI (huIL-17RA-FLAG-polyHis [2]) | normalized MFI (huIL-17RA-FLAG-polyHis [3]) | normalized MFI (huIL-17RA-FLAG-polyHis [4]) | normalized MFI (huIL-17RA-FLAG-polyHis [5]) | normalized MFI (huIL-17RA-FLAG-polyHis [6]) | normalized MFI (huIL-17RA-FLAG-polyHis [7]) | normalized MFI (huIL-17RA-FLAG-polyHis [8]) | Kd [9] [nM] | normalized MFI (huIL-17RA-FLAG-polyHis [10]) | % inhibition of IL-6 Production, IL-17A/HFF bioassay, non-clonal supernatant 1:4 [11] [%] | % inhibition of IL-6 Production, IL-17A/HFF bioassay, non-clonal supernatant 1:32 [11] [%] | % inhibition of IL-6 Production, IL-17A/HFF bioassay, non-clonal supernatant 1:128 [11] [%] | normalized MFI (huIL-17RA-FLAG-polyHis [12]) | normalized MFI (huIL-17RA-FLAG-polyHis [13]) | normalized MFI (huIL-17RA-FLAG-polyHis [14]) | normalized MFI (huIL-17RA-FLAG-polyHis [15]) | MFI [16] | normalized MFI (huIL-17RA-FLAG-polyHis [17]) | normalized MFI (huIL-17RA-FLAG-polyHis [18]) | other results
1 | B1 | 11 | 1410 | 20 | 765 | 73 | 455 | 888 | 26 | 8.2 | 31 | 75 | 82 | 61 | 40 | 1940 | 1900 | 49 | 6 | 60 | 3040 | normalized MFI (huIL-17RA-FLAG-polyHis [19]): 3280; normalized MFI (huIL-17RA-FLAG-polyHis [20]): -5; normalized MFI (huIL-17RA-FLAG-polyHis [21]): 18; IL-17A/HFF bioassay IC50, subclone 17 [22]: 3.5 nM; IL-17A/HFF bioassay IC50, subclone 18 [22]: 3.7 nM; IL-17A/HFF bioassay IC50, subclone 20 [22]: 5.5 nM
2 | B2 | 43 | 1920 | 40 | 999 | 68 | 597 | 1200 | 18 | 8.2 | 8 | 90 | 81 | 73 | 76 | 2470 | 2470 | 55 | 8 | 98 | 3980 | normalized MFI (huIL-17RA-FLAG-polyHis [19]): 4260; normalized MFI (huIL-17RA-FLAG-polyHis [20]): -44; normalized MFI (huIL-17RA-FLAG-polyHis [21]): -1; IL-17A/HFF bioassay IC50, subclone 21 [22]: 2.5 nM; IL-17A/HFF bioassay IC50, subclone 22 [22]: 5.3 nM; IL-17A/HFF bioassay IC50, subclone 23 [22]: 0.57 nM
